Measured values taken from paper PMC10175506, “Cryo-electron microscopy of the f1 filamentous phage reveals insights into viral infection and assembly” (Nature Communications, 2023).

B1: pVII, minor capsid protein of f1 phage (natural protein, UniProt P69534 1-33, looked up)
chain: MEQVADFDTIYQAMIQISVVLCFALGIIAGGQR
notes: the five N-terminal residues (MEQVA) are not visible in the map; Arg 33 is the C-terminal residue; Five copies stand in the round tip of the nanorod; source: expressed from helper plasmid pHP1YM in double-transformed host cells, assembled into f1-derived nanorods; nanorods purified from the supernatant (PEG, CsCl density gradient, anion exchange)
B2: pVI, minor capsid protein of f1 phage (natural protein, UniProt P69531 1-112, looked up)
chain: MPVLLGIPLLLRFLGFLLVTLFGYLLTFLKKGFGKIAIAISLFLALIIGLNSILVGYLSDISAQLPSDFVQGVQLILPSNALPCFYVILSVKAAIFIFDVKQKIVSYLDWDK
notes: density observed for the entire protein; Five copies stand in the pointy tip of the nanorod; source: expressed from helper plasmid pHP1YM in double-transformed host cells, assembled into f1-derived nanorods; nanorods purified from the supernatant (PEG, CsCl density gradient, anion exchange)
B3: pIX, minor capsid protein of f1 phage (natural protein, UniProt P69537 1-32, looked up)
chain: MSVLVYSFASFVLGWCLRSGITYFTRLMETSS
notes: Five copies stand in the round tip of the nanorod; source: expressed from helper plasmid pHP1YM in double-transformed host cells, assembled into f1-derived nanorods; nanorods purified from the supernatant (PEG, CsCl density gradient, anion exchange)

Key:
[1] = molecular target: the molecule itself; assay: cryo-EM structure; purified f1-derived nanorods (529-nt ssDNA) plunge-frozen; map of the round tip, 5-fold symmetry applied, 2.8 Å
[2] = molecular target: the molecule itself; assay: cryo-EM structure; purified f1-derived nanorods (529-nt ssDNA) plunge-frozen; map of the pointy tip, 5-fold symmetry applied, 2.9 Å
[3] = molecular target: B1; assay: cryo-EM structure; purified f1-derived nanorods (529-nt ssDNA) plunge-frozen; map of the round tip, 5-fold symmetry applied, 2.8 Å; details: both partners purified

Binder: B1
- stoichiometry N [1]: 5

Binder: B2
- stoichiometry N [2]: 5

Binder: B3
- binding result [3]: binds
